According to patent US20200164029A1 (ACCELERON PHARMA, published 2020):
Blank lines part the entries; values can stand above or below the binder they belong to.

Assays:
human BMP-9 [1] = target: T1, human BMP-9 (human, UniProt Q9UK05 320-429); experiment: SPR competition: hENG(26-586) 0-50 nM premixed with 10 nM BMP-9, binding to captured ALK1
T1 construct: also called hBMP-9
T1 sequence (looked up): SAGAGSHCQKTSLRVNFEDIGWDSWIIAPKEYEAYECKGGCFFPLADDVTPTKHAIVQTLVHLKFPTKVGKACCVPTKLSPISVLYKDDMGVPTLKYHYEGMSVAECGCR
Source text: (§1) BMP-9 and BMP-10 are high-affinity ligands at the type I receptor ALK1 (activin receptor-like kinase 1). […] Similar results were obtained with BMP-10 (FIG. 21).

human BMP-9 [2] = target: T1, human BMP-9; experiment: SPR competition: hENG(26-586) premixed with BMP-9, binding to captured ALK1-hFc
Source text: as §1

human BMP-10 = target: T2, human BMP-10 (human, UniProt O95393 317-424); experiment: SPR competition: hENG(26-586) 0-50 nM premixed with 10 nM BMP-10, binding to captured ALK1
T2 construct: also called hBMP-10
T2 sequence (looked up): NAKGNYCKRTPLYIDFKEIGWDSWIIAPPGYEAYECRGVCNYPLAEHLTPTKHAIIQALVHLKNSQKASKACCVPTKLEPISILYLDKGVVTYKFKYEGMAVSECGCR
Source text: as §1

human TGF-β3 = target: T3, human TGF-β3 (human, UniProt P10600 301-412); experiment: refers back to Example 3 (SPR)
T3 construct: also called hTGF-β3
T3 sequence (looked up): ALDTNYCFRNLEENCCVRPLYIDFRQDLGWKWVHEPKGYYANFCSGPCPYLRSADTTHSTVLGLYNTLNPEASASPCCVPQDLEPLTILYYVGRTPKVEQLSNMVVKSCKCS

human TGF-β1 = target: T4, human TGF-β1 (human, UniProt P01137 279-390); experiment: refers back to Example 3 (SPR)
T4 construct: also called hTGF-β1

human TGF-β2 = target: T5, human TGF-β2 (human, UniProt P61812 303-414); experiment: refers back to Example 3 (SPR)
T5 construct: also called hTGF-β2
T5 sequence (looked up): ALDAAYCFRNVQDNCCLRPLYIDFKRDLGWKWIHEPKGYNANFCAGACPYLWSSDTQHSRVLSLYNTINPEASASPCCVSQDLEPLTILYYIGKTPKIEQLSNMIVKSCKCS

VEGF = target: T6, VEGF (human, UniProt P15692-4 27-191, limits assumed); experiment: SPR
T6 construct: also called vascular endothelial growth factor
T6 sequence (P15692 other isoform, or with tags, fused parts or gaps limits assumed): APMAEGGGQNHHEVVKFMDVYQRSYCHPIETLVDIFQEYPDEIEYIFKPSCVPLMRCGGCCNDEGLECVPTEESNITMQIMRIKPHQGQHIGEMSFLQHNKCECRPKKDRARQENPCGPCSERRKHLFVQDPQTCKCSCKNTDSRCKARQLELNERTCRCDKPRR

T4 sequence (P01137 279-390 limits assumed): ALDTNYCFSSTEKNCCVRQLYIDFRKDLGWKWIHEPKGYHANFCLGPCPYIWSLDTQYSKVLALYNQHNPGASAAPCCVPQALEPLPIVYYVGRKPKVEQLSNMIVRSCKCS

IC50 (human BMP-9 [1]): 9.7 nM
IC50 (human BMP-9 [2]): < 10 nM
IC50 (human BMP-10): 6.3 nM
B1: hENG(26-586) (R&D Systems, catalog #1097-EN) (receptor)
chain: ETVHCDLQPVGPERGEVTYTTSQVSKGCVAQAPNAILEVHVLFLEFPTGPSQLELTLQASKQNGTWPREVLLVLSVNSSVFLHLQALGIPLHLAYNSSLVTFQEPPGVNTTELPSFPKTQILEWAAERGPITSAAELNDPQSILLRLGQAQGSLSFCMLEASQDMGRTLEWRPRTPALVRGCHLEGVAGHKEAHILRVLPGHSAGPRTVTVKVELSCAPGDLDAVLILQGPPYVSWLIDANHNMQIWTTGEYSFKIFPEKNIRGFKLPDTPQGLLGEARMLNASIVASFVELPLASIVSLHASSCGGRLQTSPAPIQTTPPKDTCSPELLMSLIQTKCADDAMTLVLKKELVAHLKCTITGLTFWDPSCEAEDRGDKFVLRSAYSSCGMQVSASMISNEAVVNILSSSSPQRKKVHCLNMDSLSFQLGLYLSPHFLQASNTIEPGQQSFVQVRVSPSVSEFLLQLDSCHLDLGPEGGTVELIQGRAAKGNCVSLLSPSPEGDPRFSFLLHFYTVPIPKTGTLSCTVALRPKTGSQDQEVHRTVFMRLNIISPDLSGCTSKG
notes: also called soluble human ENG extracellular domain

binding result (human TGF-β3): no binding
binding result (human TGF-β1): no binding
binding result (human TGF-β2): no binding
binding result (VEGF): no binding
B2: mENG(27-581)-mFc (Fc fusion)
chain: GGERVGCDLQPVDPTRGEVTFTTSQVSEGCVAQAANAVREVHVLFLDFPGMLSHLELTLQASKQNGTETQEVFLVLVSNKNVFVKFQAPEIPLHLAYDSSLVIFQGQPRVNITVLPSLTSRKQILDWAATKGAITSIAALDDPQSIVLQLGQDPKAPFLCLPEAHKDMGATLEWQPRAQTPVQSCRLEGVSGHKEAYILRILPGSEAGPRTVTVMMELSCTSGDAILILHGPPYVSWFIDINHSMQILTTGEYSVKIFPGSKVKGVELPDTPQGLIAEARKLNASIVTSFVELPLVSNVSLRASSCGGVFQTTPAPVVTTPPKDTCSPVLLMSLIQPKCGNQVMTLALNKKHVQTLQCTITGLTFWDSSCQAEDTDDHLVLSSAYSSCGMKVTAHVVSNEVIISFPSGSPPLRKKVQCIDMDSLSFQLGLYLSPHFLQASNTIELGQQAFVQVSVSPLTSEVTVQLDSCHLDLGPEGDMVELIQSRTAKGSCVTLLSPSPEGDPRFSFLLRVYMVPTPTAGTLSCNLALRPSTLSQEVYKTVSMRLNIVSPDLSGKGTGGGEPRVPITQNPCPPLKECPPCAAPDLLGGPSVFIFPPKIKDVLMISLSPMVTCVVVDVSEDDPDVQISWFVNNVEVHTAQTQTHREDYNSTLRVVSALPIQHQDWMSGKEFKCKVNNRALPSPIEKTISKPRGPVRAPQVYVLPPPAEEMTKKEFSLTCMITGFLPAEIAVDWTSNGRTEQNYKNTATVLDSDGSYFMYSKLRVQKSTWERGSLFACSVVHEGLHNHLTTKTISRSLGK
notes: also called mu-Endoglin; soluble murine ENG fusion protein
